Source: the supplement of paper PMC9170038

Test system: K4 kissing-loop RNA reporter
Assay: apparent KD of K4 kissing-loop reporter; higher = weaker reporter binding
Conditions: Eterna round: R107
Method: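 RNA-MaP round R107: designed RNA switches with theophylline, tryptophan, arginine or FMN aptamers are transcribed on-chip within common flanks. They are titrated with a labelled K4 kissing-loop RNA reporter in RNA-MaP buffer (100 mM Tris pH 7.5, 80 mM KCl, 4 mM MgCl2), without ligand or with the indicated ligand. Median apparent KD per design.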

[1] = input ligand: theophylline 20 uM
[2] = input ligand: tryptophan 2.4 mM
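Note: bound reporter read as fluorescence of individual clusters on recovered sequencing chips by microscopy, with normalized cluster intensities fitted with a binding model.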

Sequence	apparent KD of K4 kissing-loop reporter (input ligand: FMN 200 uM) [nM]	apparent KD of K4 kissing-loop reporter (input ligand: arginine 13.2 mM) [nM]	apparent KD of K4 kissing-loop reporter (input ligand: none) [nM]	apparent KD of K4 kissing-loop reporter [1] [nM]	apparent KD of K4 kissing-loop reporter [2] [nM]
CCGAAGAACCAGUGAUGUUGGUUGACUAGACAGGAUAUGAGCAACAUCAGAAGGGUCUGGCUUCGGGAGUGGGUCGCGCUGACCU [Geeredin]	276	136	845	371	206
GGUAUCUAUACAGAUACCAGUCGUACAGCUGCAUUACAGGUUAGUGAUGUUAACCUGUACGACCCUUGGCAGCUGUAUAGUAGUA [Theo B Ex t2b]	101	72	91.8	100	94
AAUAGCCGUACUAGUGAUGUUAGUGUGGAUACCAGUUCAUGGACGAACCCUUGGCAGCCAUCAAAUAUAUAUGAGGGAUCAUCAC [theeternabot_exclusion_KL_Theo_A_47]	295	268	309	410	320
AGUGCAUGCUCGGCCGCCACUCAGAAGAAGAUAGAAGUGAUGUUUCUAAUGAUGAGAAUAAUAAAGAGGACCGGGAGAUGUGCAA [First try]	122	125	149	164	116
GCUAUGGUAGGAAGGAGCGCUUAUUUAUUAAUAAGAGUGAUGUUCGAUAAUAGAUAUUUAUAGCAGGUAGGUCGCCUACUAUAGC [Arginine B K4 11]	290	278	293	321	165
UUAGAUCAAAGAUCAGUCUUAUCAAGAGCACGAGGACCGGUACGGCCGCCACUCGAGUGAUGUUCGAGAGCUCUUGUGACAAAUU [AK2 EXC Tryptophan A]	148	129	157	154	219
GGAUAGGACAGAGGAUAUCCAGUGAUGUUGGAGAAUUCUCCUUAAACAUGUCACAAAAGUGGCAUGGGAGAAGGCUGUCCUAUCG [Mod of Eli's FmnBX 29 v1]	217	123	122	138	105
UAUAGGGAUAGUGAUGUUAUCCCAUGUGAUACCAGUGCCAUCCAACACCCUUGGCAGCAUACGGGCAGUGAUGUUGUUCUUGGUA [Exclusion Theophylline A GF 14]	102	88.9	99.1	89.5	97.2
GCAUCCGAUGCAGGAUAUAGAUGAACGAGUGAUGUUUGGAAUUUAUGUCCAAAGCCUACGAUCAGACUAGAAGGGCAUCGGAUGC	147	75.4	122	197	164
AAGUUGAACUGAAGGAGCGAGAAAUAGAAUGUAAGAAUAUAUGCUAGUGAUGUUAGAAAUUCUCAGGUAGGUCGCAGUAAGAUUU [V1.1]	277	328	330	558	192
UGAUACCAGACGGCCGCCACUGCACCAGUCAAUGACUGAGUGUAGUAUUGCUCAGUGAUGUUGAGUAGGACCGGGUCUGGUAUCU [Mod of Eli's TrypBX 8]	109	113	108	128	115
GCGCGUCAUGUCAGCGGUGACUAUGUCGAUACCAGCGCCGCAAGGCGCCCUUGGCAGCGACGCGCUGGAGUGAUGUUCCAGCGUG [#2 Exclusion - Theophylline A Attempt #10 (HarryS)]	148	118	140	144	124
CAUCCUACACCUCAAGCAGUGAUGUUGCUACGAGGACCGGUACGGCCGCCACUCGUUUAAGCAUGGAUAUUAGCUGUGCUGACUA [theeternabot_exclusion_KL_Trp_A_16]	468	458	461	576	439
GCAUCCAUGGCAGGAUAUAGCUGAGUGAUGUUCAGGACCCAGUCAGUAUCCAUUACUACUGGACUUCUAGAAGGGCCAUGGAUGC	231	192	288	288	246
CUUGUACAAGUGAUGUUUGUUAUAUCCGAAGGAGCGUCGUAAUAGACAGGUAGGUCGCGGAGUUAGCUGGUUUUUUUAACAGCUA [JR_Nu_SSArginiA_Sub030]	621	421	679	472	584
GCGGCCCAGACGGAUACCAGUGACCCGCUGGGAACCGCGGGCCCAGAGUGAUGUUCGGGACACCCUUGGCAGCCGCCUGGGUCGC [#2 Same State - Theophylline B Attempt #19 (HarryS)]	732	293	491	606	448
UUAUAUUUUAUAUUUAGUAGAGCUCUCACUCGAGGACCGGUACGGCCGCCACUCGAGUGAUGUUCGAGUGGGAGAGCUCUACAUU [AK3.2 EXC Tryptophan A]	118	104	99.8	116	315
UAUUGGAGUGAUGUUCCAUUAACGAUCCUACGAGGACCGGUACGGCCGCCACUCGAAAUGCAGUGAUGUUGCAGCCAGCCGUAAA [Exclusion Trptophan A GF 7]	174	167	183	188	162
GGGUGUAGUGCGGCCGCCACUGUGAAAGUAGAAGAAUAUAGUGAUGUUAUAUAGGAUUAAAAGAAUAGGACCGGGCAUUAGACUU [#23 K4 Tryptophan B Same State]	214	236	284	248	182
GCAAAACGCAGUGAUGUUGCGAUCUCGGAAGGAGCGCGUGAAAACGCAGGUAGGUCGCCGAGUCAGUGAGUAUCUCGCUGUUUGC [Arginine A K4 19]	383	352	489	455	322
CAUAGGAAACUAUGUAUCUCUCUUACUGAAGGAGCGCGUGAAAACGCAGGUAGGUCGCAGAAUUUAAUAGAGAGUGAUGUUCUCA [Ex Arginine A K4 6]	393	332	496	513	473
GGGAGUAGUGCGGCCGCCACUGAGAAAGAAGAAGAAUAUAGUGAUGUUAUAUAGGAAAUAAAGAAUAGGACCGGGCAUUAGAUUU [SSTRyptB.M]	259	211	235	181	211

Sequence	apparent KD of K4 kissing-loop reporter (input ligand: FMN 200 uM) [nM]	apparent KD of K4 kissing-loop reporter (input ligand: arginine 13.2 mM) [nM]	apparent KD of K4 kissing-loop reporter (input ligand: none) [nM]	apparent KD of K4 kissing-loop reporter [1] [nM]	apparent KD of K4 kissing-loop reporter [2] [nM]
AAACAUCACUGGGAGUGAUGUUCUCAGUGACGAGGACCGGUACGGCCGCCACUCGCGAGAGAACUAGUCUAGACUUGACUGCAUU [Excl Tryptophan A V14]	386	366	356	425	428
AUGGGUCCACGAAGGAGCGCCGUGGAGUGAUGUUCCGGUUAGAUCCAGUGAUGUUGGGCCCGGCAGGUAGGUCGCGUGGACUCAU [Exclusion Arginine B GF 23]	720	522	586	729	533
CAUACUUGCCGACCGCGGCACGCUAGUGAUACCAGUAACACCGUCUACCCUUGGCAGCACGAGAGAGUGAUGUUUUCAGCAGCCA [theeternabot_sameState_KL_Theo_A_3]	1030	722	982	736	857
AGAUAGGGCUGAAGGAGCGUCGGAGAAGAAAAGAAGAAAUCCAGUGAUGUUGGAUAAAUCCGACAGGUAGGUCGCAGUUUUAUGA [hbob_SS_Arginine_B_2t136]	109	116	127	140	119
GUAGUCGUACCUUCAGUGAUGUUGAAGGAUACCAGAUGUUACCACAUCCCUUGGCAGCCUUGGGAUAACAGUGAGUUGGAAUAUG [Soonusa]	161	127	159	138	160
CCCUCACGAGUGAUGUUCGUAGGGUACAGUCAGGAUAUCAUGCGGUUGAGAAGGGACAGAGAGGGCGGCGGCGGGUUGCUCUUCG [Xeaan]	155	190	242	271	222
CCCUCACGAGUGAUGUUCGUAGGGUACAGUCAGGAUAUCAUGCGGUUGAGAAGGGACAGAGAGGGCGGCCACGGGUUGCUCAUCU [Tiongequ]	187	288	372	435	390
AGGAUCCGUCGACAAAAGUCGACAUAAUCCAAGGAUAUGACGAAAGUCAGAAGGUGGGCAUAAGUCCAGUGAUGUUGGAGGAUCC [FmnA 18 #SwitchBubble #K4Late]	575	360	587	523	445
ACGUGCACCAGUGAUGUUGGAAAAUAUGAAGGAGCGGGCGAAAGCCCAGGUAGGUCGCAUAAUAGCACGAGCCACGAAAGUGGCA [#SwitchBubble 20 #K4Early]	125	137	184	132	126
UUUAUUAAGACGGCCGCCACUGAAUCAUAGUGAUGUUAUGAUAAAAUUUUAGAUAAUAAUAACAGCAGGACCGGGUCAAUUAUUA [JR_SSTryptoB_Sub015]	200	173	208	191	182
UUUAAAUAUAGUGAUGUUAUAUAACAAUGACGAGGACCGGUACGGCCGCCACUCGAGAGAGAUAAUGGUAAAAUAAAUAAUUUUC [AstrosSSTryA#3]	395	585	709	783	389
UUCUACGAGUGAUGUUCGUAGUGUAAUAGUUAGGAUAUCGUUUUUUCGAGAAGGAACUUCGAAGUGAUACGAAAGUAUCGCUUCG [FMN A 11]	122	117	126	132	136
GCCGUACGCAUGGAUACCAGCACACAACGAAGUGAUGUUUCGUGCGUAGAUUUGUGCUACUGCCCUUGGCAGCCAUGCGUACGGC	86.6	69	82.2	69.3	78.6
GCUAUGGUAGGAAGGAGCGCUAAUUUAUUUUUACGAGUGAUGUUCGGUAGUAGAUUGUUAAAGCAGGUAGGUCGCCUACUAUAGC [Arginine B K4 17]	103	124	106	85.7	92.5
AAUAUAUAGUGAAGGAGCGCGUAUAGCAGUGAUGUUGCUUACUUAUUAUUAUAUUUUUUGACGCAGGUAGGUCGCACUAUAUAUA [JR_ExcArginiB_Sub021]	242	181	268	227	215
GUCCCAGUGAUGUUGGUAGGCGAGCGGGAUACCAGCCAAGACUCAGGCCCUUGGCAGCCCACAUAUCCCACGUAGGGAGUAGCUC [Same State - Theophylline A (Freestyle 18)]	269	172	210	274	209
UGUGUUGUUUUGAUGUUUGUUGUAAGUUGGCAGGAUAUCGUAGAGGCGAGAAGGGCUUUUAUGCGUUAUGAGUGAUGUUUGUAGG [ggbgzmullin]	353	241	357	351	319
UCUGCUGUAUAUGAUACCAGCAGUGAGAGACAGGAAGUAUAGUGAUGUUAUAUGAGAGAAUGCCCUUGGCAGCGUGUGCGGGUGG [SSTheophylB.Y]	119	111	81.7	119	66.2
CCAUUCAUUUACGAUACCAGUCUAAUAUAUUUGAUCAAAACCCUCGCCGAGUGAUGUUCGGACCCUUGGCAGCGUCUGGGACAGG [eesetmullin]	477	325	503	403	414
CUGUUGUAGACUGAUACCAGUCUCACAGCAGAUGUGUGGGACUUAGUGAUGUUAAGUACCGACCCUUGGCAGCAGUCUACGACCU [Theo B SS t6]	428	374	377	452	394
CCGAGUAGCUCCGAUACCAGCACAAUCGUUCAAUGAUCCAUGCGCAAGUGAUGUUUGCGUUGCCCUUGGCAGCGGGCAAAAGCUU [theeternabot_sameState_KL_Theo_B_2]	61.3	90	72.4	86.5	78.6
